In the supplement of paper PMC9170038:

Tested on: MS2 coat protein
Experiment: apparent KD of MS2 coat protein; higher = weaker reporter binding
Details: Eterna round: R107
Outline: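 Designed RNA switches were transcribed on-chip from Illumina sequencing clusters and titrated with SNAP-549-labelled MS2 coat protein in twofold steps from 0.7 or 1.5 nM up to 3 µM. Each step lasted 0.8–1.5 h at first and 10–20 min by the end, in 100 mM Tris-HCl pH 7.5, 80 mM KCl and 4 mM MgCl2, without or with constant ligand. Apparent KD is the median, for each design, of fits to normalised cluster binding curves.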

[1] = input ligand: theophylline 20 uM
[2] = input ligand: theophylline 2 mM
[3] = input ligand: tryptophan 2.4 mM

Sequence	apparent KD of MS2 coat protein (input ligand: arginine 13.2 mM)	apparent KD of MS2 coat protein [1]	apparent KD of MS2 coat protein [2]	apparent KD of MS2 coat protein (input ligand: none)	apparent KD of MS2 coat protein [3]
AUAACGAGUGGUGGAUAAUCCUCAUGUAAACGAGGACCGGUACGGCCGCCACUCGAUAACAUGAGGAUCACCCAUGUAAUAAUAA [|T'-M'-Trp-Ms2|_Design17]	25.9 nM	20.8 nM	21.3 nM		
GGCCCUGCGAGCGCUCGCAGGGCCGCGGAUACCAGCGAGGUCCAUCGCCCUUGGCAGCCGAACAUGAGGAUCACCCAUGUCGGUC [#1 Same State - Theophylline A Attempt #11 (HarryS)]	11.4 nM	18.7 nM	28.1 nM	11.6 nM	10.7 nM
UACAUGAGGAUCACCCAUGUAAGGUGAGAUACCAGUGAUAUGCUACACCCUUGGCAGCUCACGGCUGACUAUCAGCACACAUGUA [Theo A SS t1]	28.2 nM	34.4 nM			26.8 nM
UAUUAUCAGUCGGCCGCCACUGACACAUGAGGAUCACCCAUGUAAUUUGGGUUAUAUAUAAAUUACAGGACCGGGACAAAGGCUA [JR_ExcTryptoB_Sub013]	114 nM	318 nM	396 nM		
GGUGGCUGGAUCGAUACCAGCCACCACCGAUAGACCACAUGAGGAUCACCCAUGUUGGGUGGCCCUUGGCAGCGGUCCAGCUGCC [#1 Same State - Theophylline B Attempt #5 (HarryS)]	78.8 nM	1010 nM	1240 nM	587 nM	851 nM
UUGUGGCGCUCGGCCGCCACUCCGACAUGAGGAUCACCCAUGUUCUACAUGAGGAUCACCCAUGUGAGGACCGGGAGACACUUCC [Exclusion Tryptophan B GF13]	53 nM	109 nM	116 nM		
AAGAAGUUUUGAUUUUUAUGAAGUAGUGAUACCAGUUAAGAAAGAGACCCUUGGCAGCGCAACAUGAGGAUCACCCAUGUAAGAA [Another radom design]	18.9 nM	21.1 nM	19.7 nM	17.3 nM	21.9 nM
GAAUCUACAAACGAUACCAGAUCCGGCUGCCACAUGAGGAUCACCCAUGUCUAGCGACUCAUCCCUUGGCAGCGUGUGCAUCCCG [theeternabot_sameState_MS2_Theo_B_37]	147 nM	612 nM			629 nM
GGACUAACUGGAAGGAGCGACACGCAGAAACUGCAAUUUCCUCCACACGAGGAUCACCCGUGUCAGGUAGGUCGCCAGUUAGUCG [ArgBX 29]	31.3 nM	52 nM	57 nM	39.1 nM	40.9 nM
GGGCAAGAGGGAAGGAGCGUUAGCUGAGUCACAUGAGGAUCACCCAUGUCGCACGUAGUAUGACAGGUAGGUCGCCCUCUACCCU [SS-ArgB15]	18 nM	22.1 nM	21.6 nM	18.1 nM	18.9 nM
ACUAGCGCACAUGAUACCAGCGACAUGAGGAUCACCCAUGUACGGCGUGUAUCGAAAGGUUGCCCUUGGCAGCAUGAUAGCGCUG [Cebiri]	12.6 nM	26.1 nM			14.5 nM
AAUAAUAGGUGAUCUUAAGUCGUACCGUAACGAGGACCGGUACGGCCGCCACUCGAACAUGAGGAUCACCCAUGUAUGUAUGAUA [whbob_SS_trypto A_f5]	44.7 nM	242 nM	300 nM	168 nM	80.7 nM
CCGAACAUGAGGAUCACCCAUGUUAGGGAUACCAGCUCAGACAUGGGCCCUUGGCAGCUCUAUAGCUGACGAAAGUCAGCAUCGG [#15 SameState-TheophyllineA]	36.1 nM	46.3 nM	23.7 nM	35 nM	35.4 nM
